Measurements reported in paper PMC8393709.

Key:
[1] = target: HPV16 E6 Y43E/F47R, full length (RLuc- and YFP-tagged); assay: BRET; details: parent: est. 150; read off a plot
[2] = target: HPV16 E6N Y43E/F47R, amino acids 1 to 80 (RLuc- and YFP-tagged); assay: BRET binding curve; details: HEK 293T cells; value at the highest YFP/RLuc point of each curve (mutant x about 860, E6N x about 880); non-specific level (E6N + UL44) about 65; parent: est. 250; read off a plot
[3] = target: HPV16 E6N Y43E/F47R, amino acids 1 to 80 (RLuc- and YFP-tagged); assay: BRET; details: HEK 293T cells; RLuc- and YFP-tagged E6N fragments (amino acids 1 to 80); parent: est. 160; read off a plot

Substance | response [1] | response [2] | response [3]
HPV16 E6, wild-type, full length (RLuc-E6 and YFP-E6) (from UniProt P03126) Y43E; F47R | 53 a.u. (mBR) | – | –
HPV16 E6N, N-terminal domain of E6, amino acids 1 to 80 (RLuc-E6N and YFP-E6N) Y43E; F47R | – | 120 a.u. (mBR) | 70 a.u. (mBR)
